Assay results taken from patent publication US20250215101A1, “DR5 Agonist and PLK1 Inhibitor or CDK Inhibitor Combination Therapy” (Inhibrx Biosciences, Inc., priority 2022, published 2025).

Key:
Experiment in all cases: Cytotoxicity assay, colorectal cancer cell line panel, onvansertib +/- 1 nM INBRX-109
Assay type in all cases: cell-based
HT-29 = conditions: HT-29; 1 nM INBRX-109 only
Description: (§1) Monolayer cultures of each cell line were harvested for compound screening as detailed below.
(§2) Also on day 2, test and control articles were added.
(§3) On day 4, viability measurements were taken. […] Data was graphed in GraphPad Prism 9.
(§4) The results for a panel of colorectal cancer cell lines are shown in Table 3 and FIGS. 4-6, and the results for a panel of pancreatic cell lines are shown in Table 4 and FIGS. 7 and 8.

HCT-15 = conditions: HCT-15; 1 nM INBRX-109 only
Description: as §1, §2, §3, §4

LS 180 = conditions: LS 180; 1 nM INBRX-109 only
Description: as §1, §2, §3, §4

SNU-C5 = conditions: 1 nM INBRX-109 only
Description: as §1, §2, §3, §4

SNU-C2A = conditions: 1 nM INBRX-109 only
Description: as §1, §2, §3, §4

SK-CO-1 = conditions: SK-CO-1; 1 nM INBRX-109 only
Description: as §1, §2, §3, §4

T84 = conditions: T84; 1 nM INBRX-109 only
Description: as §1, §2, §3, §4

HCT 116 = conditions: HCT 116; 1 nM INBRX-109 only
Description: as §1, §2, §3, §4

NCI-H716 = conditions: NCI-H716; 1 nM INBRX-109 only
Description: as §1, §2, §3, §4

LS 123 = conditions: LS 123; 1 nM INBRX-109 only
Description: as §1, §2, §3, §4

LS174T = conditions: 1 nM INBRX-109 only
Description: as §1, §2, §3, §4

SW-403 = conditions: SW-403; 1 nM INBRX-109 only
Description: as §1, §2, §3, §4

SW-48 = conditions: SW-48; 1 nM INBRX-109 only
Description: as §1, §2, §3, §4

SW-1116 = conditions: SW-1116; 1 nM INBRX-109 only
Description: as §1, §2, §3, §4

LoVo = conditions: 1 nM INBRX-109 only
Description: as §1, §2, §3, §4

RKO = conditions: 1 nM INBRX-109 only
Description: as §1, §2, §3, §4

HT-55 = conditions: HT-55; 1 nM INBRX-109 only
Description: as §1, §2, §3, §4

SW-948 = conditions: SW-948; 1 nM INBRX-109 only
Description: as §1, §2, §3, §4

HCT-8 = conditions: HCT-8; 1 nM INBRX-109 only
Description: as §1, §2, §3, §4

SNU-81 = conditions: 1 nM INBRX-109 only
Description: as §1, §2, §3, §4

COLO320DM = conditions: 1 nM INBRX-109 only
Description: as §1, §2, §3, §4

LS 1034 = conditions: LS 1034; 1 nM INBRX-109 only
Description: as §1, §2, §3, §4

SW-480 = conditions: SW-480; 1 nM INBRX-109 only
Description: as §1, §2, §3, §4

LS 513 = conditions: LS 513; 1 nM INBRX-109 only
Description: as §1, §2, §3, §4

SW620 = conditions: SW620; 1 nM INBRX-109 only
Description: as §1, §2, §3, §4

NCI-H747 = conditions: NCI-H747; 1 nM INBRX-109 only
Description: as §1, §2, §3, §4

SW-1463 = conditions: SW-1463; 1 nM INBRX-109 only
Description: as §1, §2, §3, §4

Hutu 80 = conditions: Hutu 80; 1 nM INBRX-109 only
Description: as §1, §2, §3, §4

SW-837 = conditions: SW-837; 1 nM INBRX-109 only
Description: as §1, §2, §3, §4

DLD-1 = conditions: DLD-1; 1 nM INBRX-109 only
Description: as §1, §2, §3, §4

B1: INBRX-109: DR5-binding polypeptide consisting of SEQ ID NO: 7 (two VHH domains and an Fc region); DR5 agonist (protein)
chain: EVQLLESGGGEVQPGGSLRLSCAASGLTFPNYGMGWFRQAPGKEREFVSAIYWSGGTVYYAESVKGRFTISRDNAKNTLYLQMSSLRAEDTAVYYCAVTIRGAATQTWKYDYWGQGTLVTVKPGGSGGSEVQLLESGGGEVQPGGSLRLSCAASGLTFPNYGMGWFRQAPGKEREFVSAIYWSGGTVYYAESVKGRFTISRDNAKNTLYLQMSSLRAEDTAVYYCAVTIRGAATQTWKYDYWGQGTLVTVKPGGGGDKTHTCPPCPAPGGPSVFLFPPKPKDTLMISRTPEVTCVVVDVSHEDPEVKFNWYVDGVEVHNAKTKPREEQYNSTYRVVSVLTVLHQDWLNGKEYKCKVSNKALPAPIEKTISKAKGQPREPQVYTLPPSRDELTKNQVSLTCLVKGFYPSDIAVEWESNGQPENNYKTTPPVLDSDGSFFLYSKLTVDKSRWQQGNVFSCSVMHEALHNHYTQKSLSLSPGK
modifications: INBRX-109
notes: DR5 agonist
HT-29
  Max Cytotox at 1 nM: 19.9%
HCT-15
  Max Cytotox at 1 nM: 49.6%
LS 180
  Max Cytotox at 1 nM: 27.2%
SNU-C5
  Max Cytotox at 1 nM: 48.6%
SNU-C2A
  Max Cytotox at 1 nM: 41.4%
SK-CO-1
  Max Cytotox at 1 nM: 92.2%
T84
  Max Cytotox at 1 nM: 9.1%
HCT 116
  Max Cytotox at 1 nM: 54.4%
NCI-H716
  Max Cytotox at 1 nM: 9.2%
LS 123
  Max Cytotox at 1 nM: 3.1%
LS174T
  Max Cytotox at 1 nM: 41.2%
SW-403
  Max Cytotox at 1 nM: 15.7%
SW-48
  Max Cytotox at 1 nM: 93.9%
SW-1116
  Max Cytotox at 1 nM: 15.3%
LoVo
  Max Cytotox at 1 nM: 16.2%
RKO
  Max Cytotox at 1 nM: 3.6%
HT-55
  Max Cytotox at 1 nM: 48.4%
SW-948
  Max Cytotox at 1 nM: 98.5%
HCT-8
  Max Cytotox at 1 nM: 6.7%
SNU-81
  Max Cytotox at 1 nM: 82.1%
COLO320DM
  Max Cytotox at 1 nM: 4.7%
LS 1034
  Max Cytotox at 1 nM: 56.9%
SW-480
  Max Cytotox at 1 nM: 19.7%
LS 513
  Max Cytotox at 1 nM: 92.3%
SW620
  Max Cytotox at 1 nM: 19.4%
NCI-H747
  Max Cytotox at 1 nM: 13.4%
SW-1463
  Max Cytotox at 1 nM: 28.5%
Hutu 80
  Max Cytotox at 1 nM: 4.0%
SW-837
  Max Cytotox at 1 nM: 7.1%
DLD-1
  Max Cytotox at 1 nM: 41.9%
